{"source": "paper PMC12348683", "binders": {"B1": {"name": "72-bp dsDNA (dsDNA)", "DNA 1": "TGGTTTTTATATGTTTTGTTATGTATTGTTTATTTTCCCTTTAATTTTAGGATATGAAAACAAGAATTTATC", "DNA 2": "GATAAATTCTTGTTTTCATATCCTAAAATTAAAGGGAAAATAAACAATACATAACAAAACATATAAAAACCA"}}, "target": "T1, KwaB (O55) (Escherichia coli O55, UniProt P0DW46 1-315)", "T1 sequence": "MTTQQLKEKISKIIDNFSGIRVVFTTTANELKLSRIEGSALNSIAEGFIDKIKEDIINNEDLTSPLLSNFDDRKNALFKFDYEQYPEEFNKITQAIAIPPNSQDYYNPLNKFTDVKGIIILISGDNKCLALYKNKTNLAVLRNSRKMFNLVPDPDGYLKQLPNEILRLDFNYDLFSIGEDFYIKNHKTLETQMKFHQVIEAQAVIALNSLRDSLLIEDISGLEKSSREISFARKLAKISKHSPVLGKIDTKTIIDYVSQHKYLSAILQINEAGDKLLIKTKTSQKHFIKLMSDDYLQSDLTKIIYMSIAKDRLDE", "test": "EMSA"}
{"binder": "B1", "values": [{"measurement": "binding result", "value": "binds"}]}
